Assay results published in patent US20220289850 (published 2022).

How the values were obtained:
human integrin avb5 = biological target: T1, human integrin avb5 (human, UniProt P06756); test: FACS HEK cells
T1 chain 1: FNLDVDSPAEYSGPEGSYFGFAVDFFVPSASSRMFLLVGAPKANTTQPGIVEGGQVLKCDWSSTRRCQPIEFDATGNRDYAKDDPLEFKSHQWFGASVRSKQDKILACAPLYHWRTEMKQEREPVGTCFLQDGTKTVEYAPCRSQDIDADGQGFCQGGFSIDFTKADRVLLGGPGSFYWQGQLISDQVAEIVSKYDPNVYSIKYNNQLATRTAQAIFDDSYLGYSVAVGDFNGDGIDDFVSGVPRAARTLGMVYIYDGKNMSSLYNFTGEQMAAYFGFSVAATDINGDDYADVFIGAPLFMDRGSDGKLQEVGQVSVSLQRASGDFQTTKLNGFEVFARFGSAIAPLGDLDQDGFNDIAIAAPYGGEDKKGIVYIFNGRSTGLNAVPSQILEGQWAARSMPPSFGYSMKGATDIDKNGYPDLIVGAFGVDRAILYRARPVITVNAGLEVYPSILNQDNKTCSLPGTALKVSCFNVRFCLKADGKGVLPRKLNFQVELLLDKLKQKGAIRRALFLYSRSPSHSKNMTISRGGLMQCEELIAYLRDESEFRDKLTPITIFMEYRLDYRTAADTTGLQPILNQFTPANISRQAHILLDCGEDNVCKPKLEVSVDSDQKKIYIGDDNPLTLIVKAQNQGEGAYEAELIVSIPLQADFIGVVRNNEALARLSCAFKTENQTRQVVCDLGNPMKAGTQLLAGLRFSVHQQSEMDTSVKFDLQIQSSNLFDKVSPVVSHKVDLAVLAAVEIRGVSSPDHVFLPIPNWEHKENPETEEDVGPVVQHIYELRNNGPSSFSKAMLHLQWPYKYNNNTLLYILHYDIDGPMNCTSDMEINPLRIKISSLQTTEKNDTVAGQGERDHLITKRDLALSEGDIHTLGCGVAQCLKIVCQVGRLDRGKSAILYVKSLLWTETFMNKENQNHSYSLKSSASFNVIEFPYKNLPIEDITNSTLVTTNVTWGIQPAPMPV
T1 chain 2: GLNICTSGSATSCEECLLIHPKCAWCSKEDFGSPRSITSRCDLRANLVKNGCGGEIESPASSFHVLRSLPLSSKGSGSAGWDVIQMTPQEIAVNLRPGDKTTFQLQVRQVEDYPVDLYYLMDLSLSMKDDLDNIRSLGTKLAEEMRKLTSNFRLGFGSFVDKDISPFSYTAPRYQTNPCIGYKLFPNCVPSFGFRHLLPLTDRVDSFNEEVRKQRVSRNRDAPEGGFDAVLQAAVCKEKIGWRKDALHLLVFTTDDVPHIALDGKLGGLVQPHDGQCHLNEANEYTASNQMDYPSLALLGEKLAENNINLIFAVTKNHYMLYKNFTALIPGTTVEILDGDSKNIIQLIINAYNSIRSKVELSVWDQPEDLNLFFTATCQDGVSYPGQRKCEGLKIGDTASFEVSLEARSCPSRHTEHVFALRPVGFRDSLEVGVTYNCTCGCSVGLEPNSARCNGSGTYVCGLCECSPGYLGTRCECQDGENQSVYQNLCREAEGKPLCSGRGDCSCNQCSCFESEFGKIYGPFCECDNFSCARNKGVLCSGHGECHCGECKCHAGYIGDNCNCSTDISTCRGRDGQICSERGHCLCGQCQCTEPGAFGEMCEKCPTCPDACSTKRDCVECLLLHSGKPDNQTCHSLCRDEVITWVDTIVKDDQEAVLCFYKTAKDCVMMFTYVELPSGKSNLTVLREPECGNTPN

human integrin avb3 = biological target: T2, human integrin avb3 (human, UniProt P06756); test: SPR
T2 chain 1: T1 chain 1
T2 chain 2: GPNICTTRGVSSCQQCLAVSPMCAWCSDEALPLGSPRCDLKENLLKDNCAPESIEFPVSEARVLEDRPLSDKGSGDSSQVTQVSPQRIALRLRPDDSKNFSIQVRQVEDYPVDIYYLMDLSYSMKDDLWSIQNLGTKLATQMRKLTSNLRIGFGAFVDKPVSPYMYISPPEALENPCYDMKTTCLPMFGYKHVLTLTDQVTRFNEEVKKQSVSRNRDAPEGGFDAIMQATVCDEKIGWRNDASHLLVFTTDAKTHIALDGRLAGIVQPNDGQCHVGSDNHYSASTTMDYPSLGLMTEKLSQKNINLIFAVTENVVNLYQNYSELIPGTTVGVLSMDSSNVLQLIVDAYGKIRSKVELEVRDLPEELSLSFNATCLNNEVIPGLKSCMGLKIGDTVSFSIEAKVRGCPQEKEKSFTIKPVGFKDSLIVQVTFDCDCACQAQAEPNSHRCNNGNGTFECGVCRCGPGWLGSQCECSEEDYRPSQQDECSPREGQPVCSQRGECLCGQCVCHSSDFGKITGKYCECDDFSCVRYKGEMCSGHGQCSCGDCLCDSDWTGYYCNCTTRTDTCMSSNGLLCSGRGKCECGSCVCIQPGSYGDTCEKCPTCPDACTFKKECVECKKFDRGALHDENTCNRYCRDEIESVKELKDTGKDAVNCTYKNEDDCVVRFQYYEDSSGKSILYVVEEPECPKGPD

binding result (human integrin avb5): no binding | binding result (human integrin avb3): no binding
B1: ADWA11 2.4 IgG (antibody)
chain 1: EVQLVESGGGLVQPGGSLRLSCAASGFNIKDYYMNWVRQAPGKGLEWVGWIDPDQGNTIYEPKFQGRFTISADTSKNSAYLQMNSLRAEDTAVYYCARRLLMDYWGQGTLVTVSSASTKGPSVFPLAPSSKSTSGGTAALGCLVKDYFPEPVTVSWNSGALTSGVHTFPAVLQSSGLYSLSSVVTVPSSSLGTQTYICNVNHKPSNTKVDKKVEPKSCDKTHTCPPCPAPEAAGAPSVFLFPPKPKDTLMISRTPEVTCVVVDVSHEDPEVKFNWYVDGVEVHNAKTKPREEQYNSTYRVVSVLTVLHQDWLNGKEYKCKVSNKALPAPIEKTISKAKGQPREPQVYTLPPSREEMTKNQVSLTCLVKGFYPSDIAVEWESNGQPENNYKTTPPVLDSDGSFFLYSKLTVDKSRWQQGNVFSCSVMHEALHNHYTQKSLSLSPGK
chain 2: DIQMTQSPSSLSASVGDRVTITCRSTKSLSHFNGNTYLFWYQQKPGKAPKRLIYYMSSLASGVPSRFSGSGSGTDFTLTISSLQPEDFATYYCQQSLEYPFTFGGGTKVEIKRTVAAPSVFIFPPSDEQLKSGTASVVCLLNNFYPREAKVQWKVDNALQSGNSQESVTEQDSKDSTYSLSSTLTLSKADYEKHKVYACEVTHQGLSSPVTKSFNRGEC
